The source of these data is US9725708B2, “Methods of modulating ubiquitin ligase activity” (Board of Supervisors of Louisiana State University and …, priority 2012, dated 2017).

Where a chain is given by its changes, count along the chain named.

By Kd is commonly meant a measure of binding affinity in units of concentration.

One test addresses T1, E6APY533A (Homo sapiens, UniProt Q05086, Y556A).
T1 construct: made in house; host or cells: E. coli
T1 sequence (Q05086 1-872 isoform Q05086-3 Y553A): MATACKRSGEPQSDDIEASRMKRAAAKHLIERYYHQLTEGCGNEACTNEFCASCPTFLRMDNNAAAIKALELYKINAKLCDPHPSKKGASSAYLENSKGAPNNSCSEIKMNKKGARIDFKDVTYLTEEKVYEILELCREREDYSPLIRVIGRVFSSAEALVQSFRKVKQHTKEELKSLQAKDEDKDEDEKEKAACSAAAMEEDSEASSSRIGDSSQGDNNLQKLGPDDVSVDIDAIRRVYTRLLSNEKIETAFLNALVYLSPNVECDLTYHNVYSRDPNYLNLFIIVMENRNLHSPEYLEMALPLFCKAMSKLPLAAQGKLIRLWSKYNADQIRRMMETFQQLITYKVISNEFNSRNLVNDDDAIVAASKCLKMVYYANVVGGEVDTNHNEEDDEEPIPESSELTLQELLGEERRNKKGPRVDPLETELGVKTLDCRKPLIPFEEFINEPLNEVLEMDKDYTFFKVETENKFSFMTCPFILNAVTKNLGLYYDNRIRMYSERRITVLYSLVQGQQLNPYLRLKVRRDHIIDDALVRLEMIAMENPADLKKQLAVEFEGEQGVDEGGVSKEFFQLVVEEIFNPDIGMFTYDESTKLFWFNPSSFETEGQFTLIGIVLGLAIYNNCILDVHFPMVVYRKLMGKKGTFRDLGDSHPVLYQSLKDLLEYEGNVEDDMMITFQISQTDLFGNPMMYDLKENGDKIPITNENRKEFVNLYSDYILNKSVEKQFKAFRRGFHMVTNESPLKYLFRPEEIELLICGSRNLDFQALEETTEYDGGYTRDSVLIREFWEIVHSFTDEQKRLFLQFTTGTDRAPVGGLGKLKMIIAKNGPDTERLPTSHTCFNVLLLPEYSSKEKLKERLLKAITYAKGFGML
Nature of the test: E6 rescue of 125I-polyubiquitin chain formation by E6APY533A. Particulars: 20 nM E6 protein. It counts as biochemical. The protocol: (§1) E6AP-catalyzed ^125I-Ubiquitin Conjugation Assay: The E3 ligase activity of recombinant E6AP ligase was quantitated in kinetic assays under initial velocity conditions (Ronchi et al., (2013) J. Biol. Chem. 288, 10349-10360, Ronchi & Haas (2012) Methods Mol. Biol. 832: 197-218). Rates of E6AP-catalyzed ^125I-polyubiquitin chain formation were measured at 37° C. in incubations of 25-μl final volume containing 50 mM Tris-HCl (pH 7.5), 1 mM ATP, 10 mM MgCl2, 1 mM DTT, 10 mM creatine phosphate, 1 IU of creatine phosphokinase, 5 μM ^125I-ubiquitin (approximately 1.5×10^4 cpm/pmol), 50 nM human Uba1, and the indicated concentrations of UbcH7 and E6AP ligase (Siepmann et al., (2003) J. Biol. Chem. 278: 9448-9457; Baboshina et al., (2001) J. Biol. Chem. 276: 39428-39437). […]
(§2) Polyubiquitin chain formation was measured by excising lanes between the top of the resolving gel and the top of the stacker gel, representing anchored and free ^125I-polyubiquitin chains, respectively, and quantitating associated ^125I-ubiquitin by γ-counting. Absolute rates of ^125I-polyubiquitin chain formation were calculated from the associated radioactivity and the corrected specific radioactivity for ^125I-ubiquitin. Datum points represent single assay determinations, and complete data sets were evaluated by non-linear regression analysis using GraFit version 5.0 (Erithicus). […]

Another test has as its target T2, E6APR626A (Homo sapiens, UniProt Q05086, R649A).
T2 construct: made in house; host or cells: E. coli
T2 sequence (Q05086 1-872 isoform Q05086-3 R646A): T1 sequence (Q05086 1-872 isoform Q05086-3 Y553A) with A553Y, R646A
Nature of the test: E6 rescue of 125I-polyubiquitin chain formation by E6APR626A. It counts as biochemical. The conditions noted are these: 20 nM E6 protein. The protocol:
as §1, §2

Another test addresses E6AP ligase (Homo sapiens, UniProt Q05086). The conditions noted are these: surface plasmon resonance, Zanier et al. 2005; cited from earlier work. In general terms: SPR reads the build-up and loss of mass on a sensor chip optically.

B1: E6 protein: recombinant human papilloma virus 16 E6 protein, 158 amino acids (protein)
chain: MHQKRTAMFQDPQERPRKLPQLCTELQTTIHDIILECVYCKQQLLRREVYDFAFRDLCIVYRDGNPYAVCDKCLKFYSKISEYRHYCYSLYGTTLEQQYNKPLCDLLIRCINCQKPLCPEEKQRHLDKKQRFHNIRGRWTGRCMSCCRSSRTRRETQL
With B1, the results for the increase in rate in the test with E6APY533A and with E6APR626A were 8 fold and 13 fold, respectively. Further, the Kd with E6AP ligase is 4 µM.
